Laboratory results: the supplement of paper PMC6757056
± gives the standard deviation of the averaged measurements.

B1: library; a variant is named by its letters at N, in order (parent)
chain: GCUGUCACCGGUGCUUGGUACGUUAUAUUCAGCCGGUCUGAUGAGUCUNNNNNNAGACGAAACAGC

Assays:
(6R,S)-folinic acid [1] = variants of: B1; experiment: normalized RNA/DNA level without ligand (relative to sTRSVctl = 100) (log10 (% of sTRSVctl)); HEK293T overexpressing SLC46A1; higher = less ribozyme self-cleavage, higher mRNA level; details: without (6R,S)-folinic acid; ligand present: no
Outline: (§1)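 For each 6-well well, 4 µg of library plasmid encoding mCherry-linked ribozyme switches, or eGFP-linked ones in some ligand experiments, was transfected into HEK293T. Any ligand was added 1 h before transfection, and RNA was extracted with EDTA 72 h after it, then reverse-transcribed, amplified, barcoded and sequenced. RNA level was obtained by dividing RNA reads by DNA reads, normalizing to a spiked-in non-cleaving sequence or to the top sequences, then scaling and log-transforming. The top set was 25 sequences, scaling was ×100 with log10, and ≥100 DNA reads were required.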

(6R,S)-folinic acid [2] = variants of: B1; experiment: normalized RNA/DNA level with ligand (relative to sTRSVctl = 100) (log10 (% of sTRSVctl)); HEK293T overexpressing SLC46A1; ligand concentration (+) RNA-Seq: 6 mM; higher = less ribozyme self-cleavage, higher mRNA level; details: with (6R,S)-folinic acid; ligand present: yes
Outline: as §1

Variant	normalized RNA/DNA level without ligand (log10) ((6R,S)-folinic acid [1])	normalized RNA/DNA level with ligand (log10) ((6R,S)-folinic acid [2])
GCCAAG	2.0227 ± 0.0017	2.04 ± 0.038
GCCAAU	2.001 ± 0.0032	2 ± 0.053
GCCAAC	2.033 ± 0.02	2.055 ± 0.011
GCCACC	2.0387 ± 0.00018	2.01 ± 0.025
GCCACG	1.99 ± 0.04	2.03 ± 0.062
GCCACA	2.036 ± 0.0076	2.026 ± 0.018
GCCACU	2.022 ± 0.011	2.01 ± 0.029
UCCCAC	2.026 ± 0.012	2.02 ± 0.043
UCCCAA	1.981 ± 0.011	1.97 ± 0.024
UCCCAU	2.003 ± 0.0031	1.9973 ± 0.0006
UCCCAG	1.962 ± 0.014	2.04 ± 0.03
ACCGUC	2.1 ± 0.03	2.07 ± 0.037
ACCGUA	1.969 ± 0.0072	2.01 ± 0.048
ACCGUG	1.92 ± 0.02	2.007 ± 0.015
CCCUCU	2.1 ± 0.026	2.09 ± 0.057
CCCUCG	2.04 ± 0.025	1.997 ± 0.014
CCCUCC	2.07 ± 0.015	2.006 ± 0.014
GCCGUC	2.08 ± 0.031	2.081 ± 0.0053
GCCGUU	2.067 ± 0.017	2.04 ± 0.006
GCCGUG	1.994 ± 0.012	2.033 ± 0.018

Variant	normalized RNA/DNA level without ligand (log10) ((6R,S)-folinic acid [1])	normalized RNA/DNA level with ligand (log10) ((6R,S)-folinic acid [2])
GCCGUA	2.002 ± 0.0022	2.02 ± 0.05
GCCCAA	2.03 ± 0.014	2.02 ± 0.042
GCCCAU	2.014 ± 0.0026	2.02 ± 0.061
GCCCAC	2.02 ± 0.011	2.01 ± 0.034
GCCCAG	2 ± 0.028	2 ± 0.059
GCCCGU	2.0126 ± 0.0014	2.007 ± 0.0028
GCCCGC	2.0838 ± 0.0006	2.08 ± 0.03
GCCCGA	2.0343 ± 0.0013	2.04 ± 0.041
GCCCGG	2.089 ± 0.005	2.02 ± 0.035
CCAUUU	2.012 ± 0.018	2.04 ± 0.036
CCAUUG	1.97 ± 0.031	2.015 ± 0.0036
ACCCGC	2.038 ± 0.02	2.03 ± 0.041
ACCCGU	2.0423 ± 0.0012	2.02 ± 0.0044
ACCCGG	2.01 ± 0.022	2.04 ± 0.041
ACCAAU	1.955 ± 0.01	2.012 ± 0.0037
ACCAAC	2.025 ± 0.012	2.02 ± 0.029
ACCAAG	2.0073 ± 0.00077	2.009 ± 0.014
CCCUGU	2.1 ± 0.0073	2.102 ± 0.016
CCCUGA	2.088 ± 0.014	2.1 ± 0.051
CCCUGC	2.08 ± 0.025	2.08 ± 0.014

Variant	normalized RNA/DNA level without ligand (log10) ((6R,S)-folinic acid [1])	normalized RNA/DNA level with ligand (log10) ((6R,S)-folinic acid [2])
CCCUGG	2.101 ± 0.017	2.02 ± 0.022
ACCACC	2.087 ± 0.0062	2.06 ± 0.04
ACCACG	2.023 ± 0.0076	2.061 ± 0.003
ACCACU	2.029 ± 0.0042	1.99 ± 0.066
ACCACA	2.021 ± 0.0096	2.01 ± 0.021
GCCGCG	2.0553 ± 0.00018	2.092 ± 0.0094
GCCGCU	2.048 ± 0.0044	2.04 ± 0.044
GCCGCA	2.04 ± 0.027	2.044 ± 0.019
GCCGCC	2.024 ± 0.0036	2.0189 ± 0.00031
GCCCCA	2.031 ± 0.0049	2.01 ± 0.042
GCCCCG	2.041 ± 0.012	1.99 ± 0.034
GCCCCC	2.03 ± 0.032	2.04 ± 0.048
GCCCCU	2.0548 ± 0.00021	2.024 ± 0.011
UCCACU	2.041 ± 0.0029	2.052 ± 0.014
UCCACA	1.985 ± 0.0093	2 ± 0.046
UCCACC	2.018 ± 0.017	2.03 ± 0.022
GCAUUG	1.952 ± 0.009	2.01 ± 0.011
GCAUUU	2.03 ± 0.0026	2.04 ± 0.04
